Data reported in patent US20210388097A1 (SORRENTO THERAPEUTICS, published 2021).

Tests used:
BCMA on MM1R cells = target: T1, BCMA on MM1R cells (human, UniProt Q02223); assay: flow cytometry on MM1R cells, 5x serial dilution, FITC goat anti-human IgG F(ab')2, GeoMean BL1-H
T1 construct: full length, on the surface of MM1R multiple myeloma cells; also called MM1R multiple myeloma cell line
T1 sequence (receptor, looked up): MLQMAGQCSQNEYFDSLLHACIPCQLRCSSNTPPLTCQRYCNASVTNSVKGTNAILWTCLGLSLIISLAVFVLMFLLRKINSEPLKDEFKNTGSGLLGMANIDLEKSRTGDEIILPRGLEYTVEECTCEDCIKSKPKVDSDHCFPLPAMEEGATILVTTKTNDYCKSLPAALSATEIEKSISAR
From the text: Flow cytometry was used to test antibody binding to multiple myeloma cell line MM1R, using various anti-BCMA antibodies (5× serial dilution) and 80,000 cells per well. The secondary antibody was FITC AffiniPure FAB2 fragment goat anti-human IgG (H+L) (from Jackson Immuno Research). […] A BL-1 detector (IntelliCyt iQue Screener Plus) which detects at 530 nm was used. The geometric mean is reported.

[1] = target: T2, human TACI/TNFRSF13B (CD267) His-tag, from Sino Biological (human, UniProt O14836 1-166, limits assumed); assay: bio-layer interferometry, antibody coupled to AR2G sensor, TACI in solution
T2 construct: Bought protein; not shown: His-tag
T2 sequence (looked up): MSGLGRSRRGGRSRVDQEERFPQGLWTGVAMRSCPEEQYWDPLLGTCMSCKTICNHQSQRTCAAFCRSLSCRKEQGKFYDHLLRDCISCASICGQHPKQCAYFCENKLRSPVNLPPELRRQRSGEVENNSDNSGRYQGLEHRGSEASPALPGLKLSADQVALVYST
Procedure: Bio-layer interferometry was used to measure cross-binding between (1) two different anti-BCMA antibodies (BCA7-2C5 or BB C11D5) or a control isotype, and (2) various human antigens including TACI and BAFFR.
Immobilization of antibody was achieved through standard EDC-catalyzed amide bond formation to create a covalent bond between a reactive amine on the protein and the carboxy-terminated biosensor surface. Briefly, AR2G sensors (OctetRED96e from ForteBio) were activated by EDC-NHS for 6 minutes, then 5 ug/ml antibodies were loaded (BCA7-2C5 antibody, Bluebird C11D5 chimeric antibody, or a human IgG isotype antibody) in 10 mM acetate buffer pH 5.0 for 6 minutes, followed by quenching for 6 minutes with 1M ethanolamine pH 8.5. The 3 minutes baseline step removed any unbound antibody from the biosensor, followed by 1.5 minutes each for association of three analyte proteins TACI (human TACI/TNFRSF13B (CD267) His-tag, from Sino Biological, 1 ug/mL in PBS), BAFFR (human BAFFR/TNFRSF13C (CD268) Fc tag) from Sino Biological, 2 ug/mL in PBS), and human BCMA protein (in-house made with mouse Fc, 2 ug/mL in PBS).

[2] = target: T3, his-tagged human BCMA protein (ACROBiosystems, catalog # BCA-H522y-100 ug) (human, UniProt Q02223 1-54); assay: SPR (Biacore T200), antibody captured on anti-human Fc, his-tagged human BCMA as analyte; fit with ka1/kd1/ka2/kd2 (model not named)
T3 construct: limits of the bought construct are not otherwise stated; also called recombinant his-tagged human BCMA; not shown: his tag of the bought protein
T3 sequence: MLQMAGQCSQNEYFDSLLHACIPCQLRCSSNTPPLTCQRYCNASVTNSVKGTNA
Procedure: Binding kinetics of anti-BCMA antibodies with his-tagged human BCMA protein (ACROBiosystems, catalog # BCA-H522y-100 ug, UniProt Q02223-1, SEQ ID NO:92) was measured using surface plasmon resonance (SPR). Kinetic interactions between the antibodies and his-tagged BCMA proteins were measured at 25° C. using Biacore T200 surface plasmon resonance (GE Healthcare). Anti-human fragment crystallizable region (Fc region) antibody was immobilized on a CM5 sensor chip to approximately 8000 resonance units (RU) using standard N-hydroxysuccinimide/N-Ethyl-N′-(3-dimethylaminopropyl) carbodiimide hydrochloride (NHS/EDC) coupling methodology. The anti-BCMA antibody (2 μg/mL) was captured for 60 seconds at a flow rate of 10 μL/minute. The his-tagged BCMA protein was run at […] different dilutions of 3.12, 6.25, 12.5, 25, 50, 100 and 200 nM, in a running buffer of 0.01 M HEPES pH 7.4, 0.15 M NaCl, 3 mM EDTA, 0.05% v/v Surfactant P20 (HBS-EP+). The 25 nM BCMA protein run was measured two times. All measurements were conducted in HBS-EP+ buffer with a flow rate of 30 μL/minute. […] The SPR sensorgrams of anti-BCMA antibodies BCA7, GSK J6M0, BC4C9 and BC5C4 are shown in FIGS. 1, 2, 3 and 4, respectively, and their corresponding binding kinetics are listed in Table 3.
Binding kinetics of optimized anti-BCMA antibodies BCA7-2C5, BCA7-2D11, BCA7-2G2, BCA7-2E1, BCA7-2D8 and BCA7-2E8, with his-tagged human BCMA protein (ACROBiosystems, catalog # BCA-H522y-100 ug), were analyzed in the manner as described above.

B1: BCA7-2C5 antibody (antibody, V domains shown)
VH: EVQLVESGGGLVKPGGSLRLSCAASGFTSSTAWMSWVRQAPGKGLEWVGRIKSKSDGGTTDYAAPVKGRFTISRDDSKNTLFLQMNSLKTEDTAVYYCAKGGGTYGYWGQGTTVTVSS
VL: QSALTQPASVSGSPGQSVTISCTGTSSAHGGHYYVSWYQQHPGKAPKLMIYDVSNRPSGVSNRFSGSKSGNTASLTISGLQAEDEADYYCGSYTSSGSYVFGTGTKLTVL
- EC50 (read off the curve) (BCMA on MM1R cells): ~0.08 µg/mL
- binding result [1]: no binding (tested: 1 ug/mL)
- Kd [2]: 19.4 nM
- ka1 [2]: 1.37e+06 M⁻¹ s⁻¹
- ka2 [2]: 0.000847 s⁻¹
- kd1 [2]: 0.0422 s⁻¹
- kd2 [2]: 0.00145 s⁻¹
